We go through 15 molecules from US20070071745A1 (Hoffmann-La Roche, published 2007).

Positions count from the first letter of the chain named. Numbers in names are those of the source.

Experiment [1] addresses T1, human CD20 (human, UniProt P11836 1-297).
T1 construct: whole, on cells; also called human CD20 antigen; target antigen (CD20)
T1 sequence (looked up): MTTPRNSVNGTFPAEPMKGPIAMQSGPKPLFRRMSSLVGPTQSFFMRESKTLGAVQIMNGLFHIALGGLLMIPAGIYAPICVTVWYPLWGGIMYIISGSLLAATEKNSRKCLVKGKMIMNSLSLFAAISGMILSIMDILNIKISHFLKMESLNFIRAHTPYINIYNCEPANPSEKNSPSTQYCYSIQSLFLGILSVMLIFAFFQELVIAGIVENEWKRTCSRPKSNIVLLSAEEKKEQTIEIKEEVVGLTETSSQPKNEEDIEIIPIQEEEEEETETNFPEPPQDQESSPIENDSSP
Put plainly: flow cytometry on Raji B-cell lymphoma cells (FIG. 11). For orientation: Flow cytometry measures light scatter and fluorescence of single cells or particles in a stream.
Method: (§1) 200,000 cells in 180 μl FACS buffer (PBS containing 2% FCS and 5 mM EDTA) were transferred to 5 ml polystyrene tubes. Next, 20 μl of 10-fold concentrated anti-CD20 antibody samples (1-5000 ng/ml final concentration) or PBS only were added, and the tubes were incubated at 4° C. for 30 min. Subsequently, samples were washed twice with FACS buffer and pelleted at 300×g for 3 min. Supernatant was aspirated off and cells were taken up in 100 μl FACS buffer. Next, 1 μl anti-Fc-specific F(ab′)2-FITC fragments (Jackson Immuno Research Laboratories, USA) was added and the tubes were incubated at 4° C. for 30 min. Samples were washed twice with FACS buffer and taken up in 500 μl of FACS buffer containing 0.5 μg/ml PI for analysis by Flow Cytometry. Binding was determined by plotting the geometric mean fluorescence against the antibody concentrations.

Experiment [2] deals with T1, human CD20. Put plainly: flow cytometry on Raji B-cell lymphoma cells (FIGS. 2, 9 to 13).
Method: as §1
For experiment [3], the target named is T1, human CD20. Put plainly: flow cytometry on Raji B-cell lymphoma cells (FIG. 2).
Method: as §1
Experiment [4] addresses T1, human CD20. Description: flow cytometry on Raji B-cell lymphoma cells (FIG. 22).
Method: as §1
Experiment [5] concerns the target T1, human CD20. Put plainly: flow cytometry on Raji B-cell lymphoma cells (methods described above).
Method: as §1
In experiment [6] the target is T1, human CD20. Put plainly: flow cytometry on Raji B-cell lymphoma cells (FIGS. 2, 9 to 13); the same paragraph adds that the binding of B-HL11 to B-HL17 does not differ drastically in EC50 and stoichiometry.
Method: as §1

B1: B-HH1 paired with the BKV1 humanized B-ly1 light chain (antibody, human IgG1, V domains shown)
VH: QVQLVQSGAEVKKPGSSVKVSCKASGYTFSYSWMSWVRQAPGQGLEWMGRIFPGDGDTDYAQKFQGRVTITADKSTSTAYMELSSLRSEDTAVYYCARNVFDGYWLVYWGQGTLVTVSS
VL: DIVMTQTPLSLPVTPGEPASISCRSSKSLLHSNGITYLYWYLQKPGQSPQLLIYQMSNLVSGVPDRFSGSGSGTDFTLKISRVEAEDVGVYYCAQNLELPYTFGGGTKVEIKR
notes: also called BHH1-BKV1
B1: the binding result with human CD20 [1] is recorded as “binds”.

B2: BHH2-BKV1 humanized IgG1 B-ly1 anti-human CD20 antibody (antibody, V domains shown)
VH: B1 VH with T28A, S35N, A61N, Q62G, Q65K
VL: B1 VL
notes: Non-glycoengineered form; also called BHH2-BKV1-wt; humanized B-ly1
Regarding B2, the binding result with human CD20 [2] was “binds”.

B3: B-HL12 (G9A, V48M) paired with the BKV1 light chain (antibody, human IgG1, V domains shown)
VH: EVQLVESGAGLVKPGGSLRLSCAASGFTFSYSWMNWVRQAPGKGLEWMGRIFPGDGDTDYNGKFKGRVTITADKSTSTAYMELSSLRSEDTAVYYCARNVFDGYWLVYWGQGTLVTVSS
VL: B1 VL
Take B3: in the experiment with human CD20 [3], the binding result is “binds”.

B4: B-HH3 paired with the BKV1 humanized B-ly1 light chain (antibody, human IgG1, V domains shown)
VH: B1 VH with T28A, S35N, A61N, Q62G, Q65K, Y95L
VL: B1 VL
notes: also called BHH3-BKV1
As to B4, in the experiment with human CD20 [1], the binding result is on record as “binds”.

B5: B-HH8 with the BKV1 light chain (antibody, human IgG1, V domains shown)
VH: B1 VH with S16A, S30T, S35N, A61N, Q62G, Q65K
VL: B1 VL
For B5, the binding result with human CD20 [4] is recorded as “binds”.

B6: BHL14-BKV1 (antibody, human IgG1, V domains shown)
VH: B3 VH with A9G, V12K
VL: B1 VL
notes: also called B-HL14 (V12K, V48M)
As to B6, in the experiment with human CD20 [3], the binding result is listed as “binds”.

B7: BHL16-BKV1 (antibody, human IgG1, V domains shown)
VH: B3 VH with A9G, L20V
VL: B1 VL
notes: also called BHL16-BKV1 W1; B-HL16 (L20V, V48M)
As to B7, in the experiment with human CD20 [3], the binding result was “binds”.

B8: BHL17-BKV1 (antibody, human IgG1, V domains shown)
VH: B3 VH with A9G
VL: B1 VL
notes: also called BHL17-BKV1 W1; B-HL17 (V48M)
Regarding B8, the binding result with human CD20 [3] is on record as “binds”.

B9: B-HH9 with the BKV1 light chain (antibody, human IgG1, V domains shown)
VH: B1 VH with S16A, S35N, A61N, Q62G, Q65K
VL: B1 VL
Regarding B9, the binding result with human CD20 [4] is “binds”.

B10: BHL15-BKV1 (antibody, human IgG1, V domains shown)
VH: B3 VH with A9G, G16S
VL: B1 VL
notes: also called BHL15-BKV1 W1; B-HL15 (G16S, V48M)
Turning to B10, in the experiment with human CD20 [3], the binding result is recorded as “binds”.

B11: BHL13-BKV1 (antibody, human IgG1, V domains shown)
VH: B3 VH with A9G, L11V
VL: B1 VL
notes: also called B-HL13 (L11V, V48M)
B11: in the experiment with human CD20 [3], the binding result is reported as “binds”.

B12: BHH2-A (V11L) paired with a BKV1 light chain (antibody, human IgG1, V domains shown)
VH: B1 VH with V11L, T28A, S35N, A61N, Q62G, Q65K
VL: B1 VL
Regarding B12, the binding result in the experiment with human CD20 [5] is listed as “binds”.

B13: BHH2-B (K12V) paired with a BKV1 light chain (antibody, human IgG1, V domains shown)
VH: B1 VH with K12V, T28A, S35N, A61N, Q62G, Q65K
VL: B1 VL
As to B13, the binding result with human CD20 [5] is “binds”.

B14: BHL11-BKV1 (antibody, human IgG1, V domains shown)
VH: B3 VH with E1Q, A9G, M48V
VL: B1 VL
notes: also called B-HL11 (having the mutation E1Q)
Turning to B14, the binding result with human CD20 [6] was “binds”.

B15: BHL8-BKV1 (antibody, human IgG1, V domains shown)
VH: B3 VH with A9G, M48V
VL: B1 VL
notes: also called BHL8-BKV1 wt
With B15, the binding result with human CD20 [2] is reported as “binds”.
